Laboratory results from ChEMBL document CHEMBL4304758, “Development of Peptide-Based Sirtuin Defatty-Acylase Inhibitors Identified by the Fluorescence Probe, SFP3, That Can Efficiently Measure Defatty-Acylase Activity of Sirtuin” (J Med Chem, 2019).

What was measured:
[1] = compound: CCCCCCCCCCCCCC(=S)NCCCC[C@H](NC(=O)[C@@H](NC(=O)[C@H](CCCNC(=N)N)NC(C)=O)[C@@H](C)CC)C(=O)N[C@@H](CCCNC(=N)N)C(=O)N[C@@H](Cc1ccc(O)cc1)C(N)=O; assay: Mixed-inhibition of recombinant human SIRT2 defatty-acylase activity assessed as substrate Km at 15 nM using varying levels of SFP3 as substrate measured at 1 min interval for 30 mins in presence of NAD+ by Michaelis-Menten plot analysis (reference value: 0.55 +/- 0.04 uM)
[2] = compound: CC[C@H](C)[C@H](NC(=O)[C@H](CCCNC(=N)N)NC(C)=O)C(=O)N[C@@H](CCCCNC(=O)Cc1ccc(/N=N/c2ccc(O)cc2)cc1)C(=O)N[C@@H](CCCNC(=N)N)C(=O)N[C@@H](Cc1ccc(O)cc1)C(N)=O; assay: as above
[3] = compound: CCCCCCCCCCCCCC(=S)NCCCC[C@H](NC(=O)[C@@H](NC(=O)[C@H](CCCNC(=N)N)NC(C)=O)[C@@H](C)CC)C(=O)N[C@@H](CCCNC(=N)N)C(=O)N[C@@H](Cc1ccc(O)cc1)C(N)=O; assay: Mixed-inhibition of recombinant human SIRT2 defatty-acylase activity assessed as substrate Km at 20 nM using varying levels of SFP3 as substrate measured at 1 min interval for 30 mins in presence of NAD+ by Michaelis-Menten plot analysis (reference value: 0.55 +/- 0.04 uM)
[4] = compound: CC[C@H](C)[C@H](NC(=O)[C@H](CCCNC(=N)N)NC(C)=O)C(=O)N[C@@H](CCCCNC(=O)Cc1ccc(/N=N/c2ccc(O)cc2)cc1)C(=O)N[C@@H](CCCNC(=N)N)C(=O)N[C@@H](Cc1ccc(O)cc1)C(N)=O; assay: as above
[5] = compound: CCCCCCCCCCCCCC(=S)NCCCC[C@H](NC(=O)[C@@H](NC(=O)[C@H](CCCNC(=N)N)NC(C)=O)[C@@H](C)CC)C(=O)N[C@@H](CCCNC(=N)N)C(=O)N[C@@H](Cc1ccc(O)cc1)C(N)=O; assay: Mixed-inhibition of recombinant human SIRT2 defatty-acylase activity assessed as substrate Km at 30 nM using varying levels of SFP3 as substrate measured at 1 min interval for 30 mins in presence of NAD+ by Michaelis-Menten plot analysis (reference value: 0.55 +/- 0.04 uM)
[6] = compound: CC[C@H](C)[C@H](NC(=O)[C@H](CCCNC(=N)N)NC(C)=O)C(=O)N[C@@H](CCCCNC(=O)Cc1ccc(/N=N/c2ccc(O)cc2)cc1)C(=O)N[C@@H](CCCNC(=N)N)C(=O)N[C@@H](Cc1ccc(O)cc1)C(N)=O; assay: as above

B1: NAD-dependent protein deacetylase sirtuin-2 (Homo sapiens), Q8IXJ6 (protein)
chain: MAEPDPSHPLETQAGKVQEAQDSDSDSEGGAAGGEADMDFLRNLFSQTLSLGSQKERLLDELTLEGVARYMQSERCRRVICLVGAGISTSAGIPDFRSPSTGLYDNLEKYHLPYPEAIFEISYFKKHPEPFFALAKELYPGQFKPTICHYFMRLLKDKGLLLRCYTQNIDTLERIAGLEQEDLVEAHGTFYTSHCVSASCRHEYPLSWMKEKIFSEVTPKCEDCQSLVKPDIVFFGESLPARFFSCMQSDFLKVDLLLVMGTSLQVQPFASLISKAPLSTPRLLINKEKAGQSDPFLGMIMGLGGGMDFDSKKAYRDVAWLGECDQGCLALAELLGWKKELEDLVRREHASIDAQSGAGVPNPSTSASPKKSPPPAKDEARTTEREKPQ
B1 was tested, and the Km [1] was 0.47 µM, the Km [2] was 0.76 µM and the Km [3] was 0.48 µM. For the same protein, the Km [4] was 1.1 µM, the Km [5] was 1.1 µM and the Km [6] was 2.5 µM.
